# According to patent US8357833B2, “Corn plants and seed enhanced for asparagine and protein” (priority 2007, dated 2013):
# B1: Zea mays asparagine synthetase Zm AsnS4 (SEQ ID NO: 51, encoded by SEQ ID NO: 50) (Zea mays) (protein)
# chain: MCGILAVLGCSDCSQARRARILACSRRLKHRGPDWSGLYQHEGNFLAQQRLAIVSPLSGDQPLFNEDRTVVVVANGEIYNHKNVRKQFTGAHSFSTGSDCEVIIPLYEKYGENFVDMLDGVFAFVLYDTRDRTYVAARDAIGVNPLYIGWGSDGSVWMSSEMKALNEDCVRFEIFPPGHLYSSAGGGFRRWYTPHWFQEQVPRTPYQSLVLREAFEKAVIKRLMTDVPFGVLLSGGLDSSLVASVTKRHLVETDAAEKFGTELHSFVVGLEGSPDLKAAREVADYLGTTHHEFHFTVQDGIDAIEEVIYHDETYDVTTIRASTPMFLMARKIKSLGVKMVLSGEGSDELLGGYLYFHFAPNREELHRETCRKVKALHQYDCLRANKATSAWGLEVRVPFLDKEFVDVAMGMDPEWKMYDKNLGRIEKWVLRKAFDDEEHPYLPEHILYRQKEQFSDGVGYNWIDGLKSFTEQQVTDEMMNSAAQMFPYNTPVNKEAYYYRMIFERLFPQDSARETVPWGPSIACSTPAAIEWVEQWKASNDPSGRFISSHDSAATDRTGDKLAVANGGGHGAANGTVNGNDVAVAIAV
# notes: 588 aa
# Substrate: N[C@@H](CC(=O)O)C(=O)O
# Experiment: Kinetics of recombinant his-tagged, refolded maize asparagine synthetase AsnS4 (substrate titration, asparagine by HPLC)
# Format: biochemical, Zea mays
# Conditions: other: Zm AsnS4, 100 mM Hepes, pH 8.0, 10 mM MgCl2
# Procedure: To assay asparagine synthetase activity, desalted protein extracts (10-50 μL) were added to wells containing 100 μL assay solution (100 mM Hepes, pH 8.0, 10 mM MgCl2, 2 mM aspartate, 5 mM DTT, 10 mM ATP, 1 mM amino(oxy)acetic acid (aspartate amino transferase inhibitor), 1 mM aspartic semialdehyde (asparaginase inhibitor). To start the reaction, glutamine (final concentration of 2 mM for standard assay) was added to the solution, which was then mixed. The assay mixture was then incubated for 1 to 2 hours. The reaction was then stopped by the addition of an equal volume of 20% (w/v) trichloroacetic acid. The mixture was then filtered to remove precipitate and asparagine was measured by HPLC. Sample size was increased from 0.5 μL to 2.5 μL for HPLC, excitation wavelength was reduced from 340 nm to 235 nm, and fluorimeter gain was increased from 10 to 13.
# This example describes the cloning of the nucleotide sequence for AsnS1 (SEQ ID NO: 1), AsnS2 (SEQ ID NO: 3), AsnS3 (SEQ ID NO: 5) and AsnS4 (SEQ ID NO: 50) into E. coli expression vectors, as well as the expression, purification and kinetics of the recombinant forms of the four AsnS isoforms.
# These vectors are expected to produce recombinant proteins with C-terminal histidine tags.
# The E. coli expression vectors described in the previous paragraph were used to transform Rosetta DE5™ E. coli cells (Novagen). […]
protein,measurement,value
B1,Km,930 µM
